In PMC11681868:
Where no end group is shown, it is not given here. [ ]: non-standard residue; d: D form. pS = N[C@@H](COP(=O)(O)O)C(=O)O

Columns and labels:
Assay in all cases: ITC; iTC200; 5 μM scFv in the cell, 50 μM peptide in the syringe; samples dialyzed against PBS; triplicate
[1] = target: rabbit antibody A4 scFv H-S54A (rabbit)
[2] = target: rabbit antibody C7 scFv (wild type) (rabbit)
[3] = target: rabbit antibody A4 scFv H-S53A (rabbit)
[4] = target: rabbit antibody A4 scFv H-T56A (rabbit)
rabbit antibody A4 scFv H-T56A (rabbit), sequence (heavy, as listed by the source, chain 1 of 2): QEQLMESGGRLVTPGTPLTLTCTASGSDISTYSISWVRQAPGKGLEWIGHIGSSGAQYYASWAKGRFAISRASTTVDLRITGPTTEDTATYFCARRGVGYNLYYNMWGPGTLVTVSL
rabbit antibody A4 scFv H-T56A (rabbit), sequence (light, as listed by the source, chain 2 of 2): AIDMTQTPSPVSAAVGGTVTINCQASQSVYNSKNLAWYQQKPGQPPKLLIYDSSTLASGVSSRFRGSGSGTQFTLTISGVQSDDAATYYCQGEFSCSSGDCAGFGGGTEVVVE

[5] = target: rabbit antibody C7 scFv H-S54A (rabbit)
rabbit antibody C7 scFv H-S54A (rabbit), sequence (heavy, as listed by the source, chain 1 of 2): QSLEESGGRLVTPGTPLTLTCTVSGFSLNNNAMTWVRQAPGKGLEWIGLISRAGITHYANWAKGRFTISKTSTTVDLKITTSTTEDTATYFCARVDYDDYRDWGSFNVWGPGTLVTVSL
rabbit antibody C7 scFv H-S54A (rabbit), sequence (light, as listed by the source, chain 2 of 2): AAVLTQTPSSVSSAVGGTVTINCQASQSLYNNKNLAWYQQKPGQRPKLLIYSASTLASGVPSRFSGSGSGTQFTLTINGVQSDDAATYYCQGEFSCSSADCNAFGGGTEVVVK

[6] = target: rabbit antibody C7 scFv H-S52A (rabbit)
rabbit antibody C7 scFv H-S52A (rabbit), sequence (heavy, as listed by the source, chain 1 of 2): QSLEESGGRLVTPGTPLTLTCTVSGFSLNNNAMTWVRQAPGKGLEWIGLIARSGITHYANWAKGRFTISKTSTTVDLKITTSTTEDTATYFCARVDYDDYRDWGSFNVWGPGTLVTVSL

[7] = target: rabbit antibody A4 scFv (wild type) (rabbit)
rabbit antibody A4 scFv (wild type) (rabbit), sequence (heavy, as listed by the source, chain 1 of 2): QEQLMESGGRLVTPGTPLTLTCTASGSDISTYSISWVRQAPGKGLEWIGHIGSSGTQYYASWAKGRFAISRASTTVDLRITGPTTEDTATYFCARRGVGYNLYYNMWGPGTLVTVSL

rabbit antibody A4 scFv H-S53A (rabbit), sequence (heavy, as listed by the source, chain 1 of 2): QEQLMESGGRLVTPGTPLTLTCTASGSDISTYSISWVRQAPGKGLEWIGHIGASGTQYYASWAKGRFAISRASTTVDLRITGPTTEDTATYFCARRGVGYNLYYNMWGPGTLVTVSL
rabbit antibody C7 scFv (wild type) (rabbit), sequence (heavy, as listed by the source, chain 1 of 2): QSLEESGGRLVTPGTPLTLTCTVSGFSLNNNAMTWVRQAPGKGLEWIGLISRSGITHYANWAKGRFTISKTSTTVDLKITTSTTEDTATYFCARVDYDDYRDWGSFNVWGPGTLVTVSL
rabbit antibody A4 scFv H-S54A (rabbit), sequence (heavy, as listed by the source, chain 1 of 2): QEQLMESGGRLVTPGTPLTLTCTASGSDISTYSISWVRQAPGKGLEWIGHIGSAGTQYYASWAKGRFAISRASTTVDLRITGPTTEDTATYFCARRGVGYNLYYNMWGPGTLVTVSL

Kd [1]: 6.95 nM
dH [1]: -23.5 kcal/mol
Kd [2]: 26.9 nM
dH [2]: -14.4 kcal/mol
Kd [3]: 3.55 nM
dH [3]: -24.9 kcal/mol
Kd [4]: 4 nM
dH [4]: -23 kcal/mol
Kd [5]: 95.3 nM
dH [5]: -13.3 kcal/mol
Kd [6]: 664 nM
dH [6]: -11.1 kcal/mol
Kd [7]: 3.34 nM
dH [7]: -24.4 kcal/mol
Binder: RPHFPQF[pS]YSAS [phosphorylated Akt peptide]
